Laboratory results published in PMC2690590, “Functional recombinant MHC class II molecules and high-throughput peptide-binding assays” (Immunome Research, 2009).

How the values were obtained:
[1] = target: DR1GrpE: DR1 α chain 1–181 and β chain 1–190 fused C-terminally to GrpE, not biotinylated (human); experiment: AlphaScreen or HTRF
[2] = target: DP401: DPA1*0103/DPB1*0401 (human); experiment: AlphaScreen or HTRF; direct LOCI: α and biotinylated β chains refolded with peptide titration, 48 h at 18°C; streptavidin donor beads and anti-MHC-II antibody acceptor beads; half saturation (EC50) fitted to Y = Bmax*X/(KD+X) and taken as approximate KD; pH as optimised for each MHC (DR2a at pH 6)
[3] = target: DR2a (DRA*0101/DRB5*0101) with non-biotinylated β chain, competitive LOCI assay (human); experiment: AlphaScreen or HTRF
[4] = target: DR2a (DRA*0101/DRB5*0101), biotinylated, direct LOCI assay at pH 6 (human); experiment: AlphaScreen or HTRF; direct LOCI: α and biotinylated β chains refolded with peptide titration, 48 h at 18°C; streptavidin donor beads and anti-MHC-II antibody acceptor beads; half saturation (EC50) fitted to Y = Bmax*X/(KD+X) and taken as approximate KD; pH as optimised for each MHC (DR2a at pH 6)
[5] = target: DR3: DRA*0101/DRB1*0301 (human); experiment: as above
[6] = target: DRB1*0813: DRA*0101/DRB1*0813 (human); experiment: as above
[7] = target: DRB3*0301: DRA*0101/DRB3*0301 (human); experiment: as above
[8] = target: I-E^d (mouse MHC class II) (mouse) (UniProt P01904); experiment: as above
[9] = target: DR4 (DRA*0101/DRB1*0401), biotinylated, LOCI assay (human); experiment: as above

Row | Binder | IC50 [1] | Kd [2] | IC50 [3] | Kd [4] | Kd [5] | Kd [6] | Kd [7] | Kd [8] | Kd [9]
1 | FLYGALLLA [MBP peptide …] | 3920 nM | 34 nM |  |  |  |  |  |  | 
2 | IQMLKNGKKIPKVEMS [Murine β2m peptide …] | 1230 nM |  | 3 nM | 6 nM | 21 nM | 73 nM | 70 nM | 117 nM | 
3 | YLFFYRKSV [TERT572Y peptide …] | 4290 nM |  |  | 2650 nM |  | 95 nM |  | 322 nM | 1590 nM
